Assay results: patent US20180344832A1

Target: PDL1 on the surface of TC-1 cells (murine (TC-1 murine tumor cell line)) (UniProt Q9EP73)
Assay: flow cytometry on TC-1 cells, isotype background control

Sequence of UniProt Q9EP73 (Q9EP73 19-290): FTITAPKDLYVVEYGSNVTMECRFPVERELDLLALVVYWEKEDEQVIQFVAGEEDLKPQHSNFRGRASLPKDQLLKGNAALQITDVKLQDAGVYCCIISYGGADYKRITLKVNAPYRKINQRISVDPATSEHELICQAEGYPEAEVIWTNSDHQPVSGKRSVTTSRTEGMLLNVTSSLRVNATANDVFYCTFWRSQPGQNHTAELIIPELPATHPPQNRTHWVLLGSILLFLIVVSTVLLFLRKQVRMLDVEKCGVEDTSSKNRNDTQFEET

median fluorescent intensity (MFI): 184 MFI
Substance: PE-conjugated isotype control antibody
